Test results as given in patent US20120087858A1 (AbbVie / Abbott, published 2012).

T1: Recombinant Human SOST (human, UniProt Q9BQB4 24-213)
T1 construct: Biacore reagent from R&D Systems; the Wnt-1/luciferase assay used Human Sclerostin (Abbott PR-1261069); also called Sclerostin; Human Sclerostin
T1 sequence (looked up): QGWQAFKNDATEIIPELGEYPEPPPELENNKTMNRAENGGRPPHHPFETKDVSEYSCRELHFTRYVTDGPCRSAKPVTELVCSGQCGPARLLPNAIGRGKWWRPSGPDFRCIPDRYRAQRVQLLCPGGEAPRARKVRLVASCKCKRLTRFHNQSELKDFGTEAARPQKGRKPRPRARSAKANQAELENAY


Tests used:
Recombinant Human SOST = target: T1, Recombinant Human SOST; assay: Biacore SPR
Protocol: (§1) The BIACORE assay (Biacore, Inc, Piscataway, N.J.) determines the affinity of antibodies or DVD-Ig with kinetic measurements of on-rate and off-rate constants. Binding of antibodies or DVD-Ig to a target antigen (for example, a purified recombinant target antigen) is determined by surface plasmon resonance-based measurements with a Biacore® 1000 or 3000 instrument (Biacore® AB, Uppsala, Sweden) using running HBS-EP (10 mM HEPES [pH 7.4], 150 mM NaCl, 3 mM EDTA, and 0.005% surfactant P20) at 25° C. All chemicals are obtained from Biacore® AB (Uppsala, Sweden) or otherwise from a different source as described in the text. For example, approximately 5000 RU of goat anti-mouse IgG, (Fcγ), fragment specific polyclonal antibody (Pierce Biotechnology Inc, Rockford, Ill.) diluted in 10 mM sodium acetate (pH 4.5) is directly immobilized across a CMS research grade biosensor chip using a standard amine coupling kit according to manufacturer's instructions and procedures at 25 μg/ml. Unreacted moieties on the biosensor surface are blocked with ethanolamine. Modified carboxymethyl dextran surface in flowcell 2 and 4 is used as a reaction surface. Unmodified carboxymethyl dextran without goat anti-mouse IgG in flow cell 1 and 3 is used as the reference surface. For kinetic analysis, rate equations derived from the 1:1 Langmuir binding model are fitted simultaneously to association and dissociation phases of all eight injections (using global fit analysis) with the use of Biaevaluation 4.0.1 software. Purified antibodies or DVD-Ig are diluted in HEPES-buffered saline for capture across goat anti-mouse IgG specific reaction surfaces. Antibodies or DVD-Ig to be captured as a ligand (25 μg/ml) are injected over reaction matrices at a flow rate of 5 μl/min. The association and dissociation rate constants, kₒₙ (M⁻¹s⁻) and koff(s⁻¹) are determined under a continuous flow rate of 25 μl/min. Rate constants are derived by making kinetic binding measurements at different antigen concentrations ranging from 10-200 nM. The equilibrium dissociation constant (M) of the reaction between antibodies or DVD-Igs and the target antigen is then calculated from the kinetic rate constants by the following formula: KD=koff/kₒₙ. Binding is recorded as a function of time and kinetic rate constants are calculated.

[1] = target: T2, Recombinant Human TNF-α/TNFSF1A (human, UniProt P01375 77-233); assay: Biacore SPR
T2 construct: Bought reagent; The same protein name (huTNFα) is used in the L929 neutralization assay; also called huTNFα
Protocol: as §1

[2] = target: T2, Recombinant Human TNF-α/TNFSF1A; assay: cell-based or functional assay
Recombinant Human β-NGF [3] = target: T3, Recombinant Human β-NGF (human, UniProt P01138 122-241); assay: Biacore SPR
T3 construct: Bought reagent; also called huNGF
Protocol: as §1

Recombinant Human β-NGF [4] = target: T3, Recombinant Human β-NGF; assay: cell-based or functional assay

T2 sequence (P01375 77-233 limits assumed): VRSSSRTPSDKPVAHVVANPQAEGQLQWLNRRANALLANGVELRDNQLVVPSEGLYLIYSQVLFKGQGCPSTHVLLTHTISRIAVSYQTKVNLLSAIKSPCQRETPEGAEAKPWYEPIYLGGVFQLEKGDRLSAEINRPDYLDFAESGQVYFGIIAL
T3 sequence (P01138 122-241 limits assumed): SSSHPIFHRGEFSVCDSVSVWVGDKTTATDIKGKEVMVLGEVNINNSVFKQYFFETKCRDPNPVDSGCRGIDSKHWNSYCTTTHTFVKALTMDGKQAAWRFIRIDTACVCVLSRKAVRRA

Row | Binder | Kd (Recombinant Human SOST) | koff (Recombinant Human SOST) | kon (Recombinant Human SOST) | Kd [1] | koff [1] | kon [1] | TNFα Neutralization Assay EC50 (L929 cells) [2] | Kd (Recombinant Human β-NGF [3]) | koff (Recombinant Human β-NGF [3]) | kon (Recombinant Human β-NGF [3]) | NGF Inhibition Assay EC50 (TF-1 cell proliferation) (Recombinant Human β-NGF [4])
1 | DVD1475 (bispecific antibody, human IgG1, kappa, DVD-Ig; linker set 2; also called DVD1475H; DVD1475L) heavy: not shown light: DIQMTQSPSSLSASVGDRVTITCRASQGIRIDLGWYQQKPGKAPKRLIYAASTLQSGVPSRFSGSGSGTEFIFTISSLQPEDFASYYCLQHKSYPLTFGGGTKVEIKRTVAAPSVFIFPPDVQMIQSPSSLSASLGDIVTMTCQASQGTSINLNWFQQKPGKAPKLLIYGSSNLEDGVPSRFSGSRYGTDFTLTISSLEDEDLATYFCLQHSYLPYTFGGGTKLEIKRTVAAPSVFIFPPSDEQLKSGTASVVCLLNNFYPREAKVQWKVDNALQSGNSQESVTEQDSKDSTYSLSSTLTLSKADYEKHKVYACEVTHQGLSSPVTKSFNRGEC | 900 pM | 0.00073 s⁻¹ | 810000 M⁻¹ s⁻¹ | 13 pM | 3.6e-05 s⁻¹ | 2.7e+06 M⁻¹ s⁻¹ | 2 pM |  |  |  | 
2 | DVD1454 (bispecific antibody, human IgG1, kappa, DVD-Ig; linker set 2; also called DVD1454H; DVD1454L) heavy: not shown light: DVQMIQSPSSLSASLGDIVTMTCQASQGTSINLNWFQQKPGKAPKLLIYGSSNLEDGVPSRFSGSRYGTDFTLTISSLEDEDLATYFCLQHSYLPYTFGGGTKLEIKRTVAAPSVFIFPPDIVMTQSHKFMSTTVGDRVSITCKASQAVSSAVAWYQQKPGQSPKLLIYWASTRHTGVPDRFTGSGSVTDFTLTIHNLQAEDLALYYCQQHYSTPFTFGSGTKLEIKRTVAAPSVFIFPPSDEQLKSGTASVVCLLNNFYPREAKVQWKVDNALQSGNSQESVTEQDSKDSTYSLSSTLTLSKADYEKHKVYACEVTHQGLSSPVTKSFNRGEC | 84 pM | 0.00086 s⁻¹ | 1e+07 M⁻¹ s⁻¹ | 210 pM | 4.9e-05 s⁻¹ | 230000 M⁻¹ s⁻¹ | 951 pM |  |  |  | 
3 | DVD1460 (bispecific antibody, human IgG1, kappa, DVD-Ig; linker set 2; also called DVD1460H; DVD1460L) heavy: not shown light: DIQMTQSPSSLSASVGDRVTITCRASQSISNNLNWYQQKPGKAPKLLIYYTSRFHSGVPSRFSGSGSGTDFTFTISSLQPEDIATYYCQQEHTLPYTFGQGTKLEIKRTVAAPSVFIFPPDIVMTQSHKFMSTTVGDRVSITCKASQAVSSAVAWYQQKPGQSPKLLIYWASTRHTGVPDRFTGSGSVTDFTLTIHNLQAEDLALYYCQQHYSTPFTFGSGTKLEIKRTVAAPSVFIFPPSDEQLKSGTASVVCLLNNFYPREAKVQWKVDNALQSGNSQESVTEQDSKDSTYSLSSTLTLSKADYEKHKVYACEVTHQGLSSPVTKSFNRGEC |  |  |  | 260 pM | 3.6e-05 s⁻¹ | 140000 M⁻¹ s⁻¹ |  | 0.85 pM | 2e-06 s⁻¹ | 2.3e+06 M⁻¹ s⁻¹ | 1700 pM
4 | DVD1495 (bispecific antibody, human IgG1, kappa, DVD-Ig; linker set 3; also called DVD1495H; DVD1495L) heavy: not shown light: DIVMTQSHKFMSTTVGDRVSITCKASQAVSSAVAWYQQKPGQSPKLLIYWASTRHTGVPDRFTGSGSVTDFTLTIHNLQAEDLALYYCQQHYSTPFTFGSGTKLEIKRTVAAPDVQMIQSPSSLSASLGDIVTMTCQASQGTSINLNWFQQKPGKAPKLLIYGSSNLEDGVPSRFSGSRYGTDFTLTISSLEDEDLATYFCLQHSYLPYTFGGGTKLEIKRTVAAPSVFIFPPSDEQLKSGTASVVCLLNNFYPREAKVQWKVDNALQSGNSQESVTEQDSKDSTYSLSSTLTLSKADYEKHKVYACEVTHQGLSSPVTKSFNRGEC | 22000 pM | 0.00095 s⁻¹ | 44000 M⁻¹ s⁻¹ | 21 pM | 5.4e-05 s⁻¹ | 2.5e+06 M⁻¹ s⁻¹ | 3.8 pM |  |  |  | 
5 | AB020 (antibody, V domains shown, Parent antibody; also called NGF parent antibody) VH: QVQLQESGPGLVKPSETLSLTCTVSGFSLIGYDLNWIRQPPGKGLEWIGIIWGDGTTDYNSAVKSRVTISKDTSKNQFSLKLSSVTAADTAVYYCARGGYWYATSYYFDYWGQGTLVTVSS VL: DIQMTQSPSSLSASVGDRVTITCRASQSISNNLNWYQQKPGKAPKLLIYYTSRFHSGVPSRFSGSGSGTDFTFTISSLQPEDIATYYCQQEHTLPYTFGQGTKLEIKR |  |  |  |  |  |  |  | 6.73 pM | 4.08e-06 s⁻¹ | 606000 M⁻¹ s⁻¹ | 3 pM
6 | DVD1517 (bispecific antibody, human IgG1, kappa, DVD-Ig; linker set 3; also called DVD1517H; DVD1517L) heavy: not shown light: DIQMTQSPSSLSASVGDRVTITCRASQGIRIDLGWYQQKPGKAPKRLIYAASTLQSGVPSRFSGSGSGTEFIFTISSLQPEDFASYYCLQHKSYPLTFGGGTKVEIKRTVAAPDVQMIQSPSSLSASLGDIVTMTCQASQGTSINLNWFQQKPGKAPKLLIYGSSNLEDGVPSRFSGSRYGTDFTLTISSLEDEDLATYFCLQHSYLPYTFGGGTKLEIKRTVAAPSVFIFPPSDEQLKSGTASVVCLLNNFYPREAKVQWKVDNALQSGNSQESVTEQDSKDSTYSLSSTLTLSKADYEKHKVYACEVTHQGLSSPVTKSFNRGEC | 5500 pM | 0.0005 s⁻¹ | 89000 M⁻¹ s⁻¹ | 18 pM | 4.7e-05 s⁻¹ | 2.6e+06 M⁻¹ s⁻¹ | 1.2 pM |  |  |  | 
7 | DVD1525 (bispecific antibody, human IgG1, kappa, DVD-Ig; linker set 3; also called DVD1525H; DVD1525L) heavy: not shown light: EIVMTQSPATLSVSPGERATLSCRASQSVSSNLAWYQQKPGQAPRLLIHGASIRATGLPARFSGSGSGTEFTLTISSLQSEDFAVYYCQQYNYWWTFGQGTKVEIKRTVAAPDVQMIQSPSSLSASLGDIVTMTCQASQGTSINLNWFQQKPGKAPKLLIYGSSNLEDGVPSRFSGSRYGTDFTLTISSLEDEDLATYFCLQHSYLPYTFGGGTKLEIKRTVAAPSVFIFPPSDEQLKSGTASVVCLLNNFYPREAKVQWKVDNALQSGNSQESVTEQDSKDSTYSLSSTLTLSKADYEKHKVYACEVTHQGLSSPVTKSFNRGEC | 9800 pM | 0.00089 s⁻¹ | 91000 M⁻¹ s⁻¹ | 15 pM | 3e-05 s⁻¹ | 2e+06 M⁻¹ s⁻¹ | 2.9 pM |  |  |  | 
8 | DVD1483 (bispecific antibody, human IgG1, kappa, DVD-Ig; linker set 2; also called DVD1483H; DVD1483L) heavy: not shown light: EIVMTQSPATLSVSPGERATLSCRASQSVSSNLAWYQQKPGQAPRLLIHGASIRATGLPARFSGSGSGTEFTLTISSLQSEDFAVYYCQQYNYWWTFGQGTKVEIKRTVAAPSVFIFPPDVQMIQSPSSLSASLGDIVTMTCQASQGTSINLNWFQQKPGKAPKLLIYGSSNLEDGVPSRFSGSRYGTDFTLTISSLEDEDLATYFCLQHSYLPYTFGGGTKLEIKRTVAAPSVFIFPPSDEQLKSGTASVVCLLNNFYPREAKVQWKVDNALQSGNSQESVTEQDSKDSTYSLSSTLTLSKADYEKHKVYACEVTHQGLSSPVTKSFNRGEC | 780 pM | 0.00083 s⁻¹ | 1.1e+06 M⁻¹ s⁻¹ | 12 pM | 3.3e-05 s⁻¹ | 2.8e+06 M⁻¹ s⁻¹ | 12 pM |  |  |  | 
9 | DVD1478 (bispecific antibody, human IgG1, kappa, DVD-Ig; linker set 2; also called DVD1478H; DVD1478L) heavy: not shown light: DIQMTQSPSSLSASVGDRVTITCRASQSISNNLNWYQQKPGKAPKLLIYYTSRFHSGVPSRFSGSGSGTDFTFTISSLQPEDIATYYCQQEHTLPYTFGQGTKLEIKRTVAAPSVFIFPPDIQMTQSPSSLSASVGDRVTITCRASQGIRIDLGWYQQKPGKAPKRLIYAASTLQSGVPSRFSGSGSGTEFIFTISSLQPEDFASYYCLQHKSYPLTFGGGTKVEIKRTVAAPSVFIFPPSDEQLKSGTASVVCLLNNFYPREAKVQWKVDNALQSGNSQESVTEQDSKDSTYSLSSTLTLSKADYEKHKVYACEVTHQGLSSPVTKSFNRGEC |  |  |  | 100 pM | 1.5e-05 s⁻¹ | 150000 M⁻¹ s⁻¹ | 329 pM | 2.5 pM | 6e-06 s⁻¹ | 2.4e+06 M⁻¹ s⁻¹ | 19 pM
